Test results from US20030133912A1 (published 2003).

T1: Human coxsackie-adenovirus receptor (CAR) expressed on CHO cells (human, UniProt P78310 20-365)
T1 sequence: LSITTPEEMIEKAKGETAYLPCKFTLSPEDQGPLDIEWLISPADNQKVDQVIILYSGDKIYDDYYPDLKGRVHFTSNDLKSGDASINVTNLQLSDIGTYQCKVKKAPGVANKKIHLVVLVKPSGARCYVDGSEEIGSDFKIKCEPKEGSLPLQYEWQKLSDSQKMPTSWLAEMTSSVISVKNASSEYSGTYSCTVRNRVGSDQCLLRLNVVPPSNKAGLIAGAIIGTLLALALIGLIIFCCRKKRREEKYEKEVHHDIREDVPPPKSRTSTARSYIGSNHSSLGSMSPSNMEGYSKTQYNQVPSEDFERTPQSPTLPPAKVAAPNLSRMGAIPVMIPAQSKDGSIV


Legend:
[1] = target: T2, Soluble human transferrin receptor, purified extracellular domain (human, UniProt P02786 89-760); test: phage display panning on immobilised hTfR extracellular domain, three rounds
T2 construct: extracellular domain; Gift material; also called hTfR; soluble hTfR
Excerpt: Enzyme-linked immunosorbent assay (ELISA) plates were coated with soluble hTfR, and bound phage were eluted by a low-pH buffer. Eluted phage were amplified in E. coli K91 and subsequently screened again for binding to the immobilized hTfR. In separate experiments, bound phage were eluted with purified transferrin holoenzyme. Three rounds of screening-amplification were done for each type of elution.
Phage screening. Ten microliters of amplified nonapeptide phage library (a generous gift from Al Jesaitis, Montana State University) was screened against the purified extracellular domain of hTfR (kindly provided by Martin Lawrence, Harvard University) coated on 96-well microtiter plates in 100 μl of 0.05 M carbonate buffer (pH 9.6). In the first panning, hTfR was coated at 100 μg/ml. Subsequent pannings were done with decreasing concentrations of hTfR for increased stringency (10 and 1 μg/ml for the second and third pannings, respectively). Bound phage were eluted with low-acid buffer (0.1 M glycine, pH 2.2) or ligand (iron-loaded human transferrin; Sigma-Aldrich) in TBS buffer (50 mM Tris-Cl, pH 7.5; 150 mM NaCl). After three successive rounds of panning and amplification, clones were picked and sequenced as described elsewhere.

[2] = target: T1, Human coxsackie-adenovirus receptor …
[3] = target: T2, Soluble human transferrin receptor, …; test: pull-down of fiber lysate with soluble hTfR on anti-hTfR antibody 128.1 beads, Western blot with 4D2.5
[4] = target: T1, Human coxsackie-adenovirus receptor …; test: 3H-labelled virus binding to CHO cells with or without hCAR, 1 h on ice

T2 sequence (P02786 89-760): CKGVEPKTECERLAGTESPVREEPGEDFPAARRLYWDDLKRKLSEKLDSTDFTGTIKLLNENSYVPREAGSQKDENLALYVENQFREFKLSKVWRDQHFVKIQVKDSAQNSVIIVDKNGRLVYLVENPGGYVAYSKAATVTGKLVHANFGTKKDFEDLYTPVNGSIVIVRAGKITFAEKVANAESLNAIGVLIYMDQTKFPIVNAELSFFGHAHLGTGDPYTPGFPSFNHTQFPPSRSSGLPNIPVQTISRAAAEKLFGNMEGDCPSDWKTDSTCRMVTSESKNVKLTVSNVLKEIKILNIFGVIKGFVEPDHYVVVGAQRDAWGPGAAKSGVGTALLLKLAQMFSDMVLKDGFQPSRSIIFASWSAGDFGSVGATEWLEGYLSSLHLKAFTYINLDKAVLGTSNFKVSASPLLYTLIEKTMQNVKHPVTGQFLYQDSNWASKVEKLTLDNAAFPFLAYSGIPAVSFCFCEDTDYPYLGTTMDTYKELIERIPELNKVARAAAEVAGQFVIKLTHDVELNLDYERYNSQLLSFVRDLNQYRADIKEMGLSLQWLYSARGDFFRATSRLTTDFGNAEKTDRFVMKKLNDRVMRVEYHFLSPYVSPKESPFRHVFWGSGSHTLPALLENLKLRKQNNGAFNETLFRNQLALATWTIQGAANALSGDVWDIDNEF

| Binder | binding result [1] | binding result [4] | further results |
| --- | --- | --- | --- |
| GKGPKWMR [Phage displaying peptide GKGPKWMR] | binds |  |  |
| KWKLHGHIK [Phage displaying peptide KWKLHGHIK] | binds |  |  |
| AIAKKHKWN [Phage displaying peptide AIAKKHKWN] | binds |  |  |
| Adenovirus type 5 (Ad5) fiber, wild type (other, also called Ad5GFP; Ad5RSVeGFP) MKRARPSEDTFNPVYPYDTETGPPTVPFLTPPFVSPNGFQESPPGVLSLRLSEPLVTSNGMLALKMGNGLSLDEAGNLTSQNVTTVSPPLKKTKSNINLEISAPLTVTSEALTVAAAAPLMVAGNTLTMQSQAPLTVHDSKLSIATQGPLTVSEGKLALQTSGPLTTTDSSTLTITASPPLTTATGSLGIDLKEPIYTQNGKLGLKYGAPLHVTDDLNTLTVATGPGVTINNTSLQTKVTGALGFDSQGNMQLNVAGGLRIDSQNRRLILDVSYPFDAQNQLNLRLGQGPLFINSAHNLDINYNKGLYLFTASNNSKKLEVNLSTAKGLMFDATAIAINAGDGLEFGSPNAPNTNPLKTKIGHGLEFDSNKAMVPKLGTGLSFDSTGAITVGNKNNDKLTIWTTPAPSPNCRLNAEKDAKLTLVLTKCGSQILATVSVLAVKGSLAPISGTVQSAHLIIRFDENGVLLNNSFLDPEYWNFRNGDLTEGTAYTNAVGFMPNLSAYPKSHGKTAKSNIVSQVYLNGDKTKPVTLTITLNGTQETGDTTPSAYSMSFSWDWSGHNYINEIFATSSYTFSYIAQE |  |  | fold increase in bound particles with CAR expression [2]: 3.6 fold; binding result [3]: no binding |
| Chimeric Ad5/30 fiber (Ad5 tail, Ad30 shaft and knob) on virus Ad5GFPf30 (other, also called Ad5RSVeGFPf30; AdGFPf30) MKRARPSEDTFNPVYPYDTETGPPTVPFLTPPFVSPNGFQESPPGVLSLKLADPIAITNGDVSLKVGGGLTVEQDSGNLSVNPKAPLQVGTDKKLELALAPPFDVRDNKLAILVGDGLKVIDRSISDLPGLLNYLVVLTGKGIGNEELKNDDGSNKGVGLCVRIGEGGGLTFDDKGYLVAWNNKHDIRTIWTTLDPSPNCKIDIEKDSKLTLVLTKCGSQILANVSLIIVNGKFKILNNKTDPSLPKSFNIKLLFDQNGVLLENSNIEKQYLNFRSGDSILPEPYKNAIGFMPNLLAYAKATTDQSKIYARNTIYGNIYLDNQPYNPVVIKITFNNEADSAYSITFNYSWTKDYDNIPFDSTSFTFSYIAQE |  | no binding |  |
| Adenovirus type 30 (Ad30) fiber on wild-type Ad30 virus (other, Tested as 3H-labelled wild-type Ad30 virions; also called Ad30 wildtype; Ad30 (VR-273)) MSKRLRVEDDFNPVYPYGYARNQNIPFLTPPFVSSDGFKNFPPGVLSLKLADPIAITNGDVSLKVGGGLTVEQDSGNLSVNPKAPLQVGTDKKLELALAPPFDVRDNKLAILVGDGLKVIDRSISDLPGLLNYLVVLTGKGIGNEELKNDDGSNKGVGLCVRIGEGGGLTFDDKGYLVAWNNKHDIRTIWTTLDPSPNCKIDIEKDSKLTLVLTKCGSQILANVSLIIVNGKFKILNNKTDPSLPKSFNIKLLFDQNGVLLENSNIEKQYLNFRSGDSILPEPYKNAIGFMPNLLAYAKATTDQSKIYARNTIYGNIYLDNQPYNPVVIKITFNNEADSAYSITFNYSWTKDYDNIPFDSTSFTFSYIAQE |  | no binding |  |
